# Several values for one entry are separate records, joined by “and”; a condition that tells them apart may be missing. Equal values may be shown once.
# B1: Cytochrome b5 wild type, P00171 (protein)
# chain: MAEESSKAVKYYTLEEIQKHNNSKSTWLILHYKVYDLTKFLEEHPGGEEVLREQAGGDATENFEDVGHSTDARELSKTFIIGELHPDDRSKITKPSESIITTIDSNPSWWTNWLIPAISALFVALIYHLYTSEN
# Settings: Bos taurus, pH 7, 25 °C, CD, MOPS 30 mM, reversible: yes (partial), whole UniProt chain shown
protein,measurement,setting,value
B1,denaturant midpoint (higher = more stable),GdnHCl,1.27 M
same,unfolding free energy,GdnHCl,3.2 kcal/mol
same,denaturant midpoint (higher = more stable),GdnSCN,1.52 M and 2.04 M

# Source: FireProtDB (doi:10.1093/protein/gzi067)
